This is an account of results in article PMC8216552.

Experiment [1] has as its target stabilized soluble CON-S envelope trimer (stabilized CON-S SOSIP gp140) (HIV-1 (group M consensus)). Nature of the experiment: negative stain electron microscopy; chimeric CON-S DS.SOSIP-664 trimers with a 10-fold molar excess of Fab, 1 h at room temperature; uranyl formate stain; 2D classes and 3D reconstruction (RELION).
Experiment [2] has the same target.
Substrate in experiment [3]: CON-S gp120 with the N362 glycosylation site (HIV-1 (group M consensus))
Substrate in experiment [4]: CON-S gp120 (HIV-1 (group M consensus))
Nature of the experiment: ELISA; direct ELISA: HIV-1 envelope protein (2 ug/mL) in sodium bicarbonate buffer coated on 384-well plates overnight at 4 C; serially diluted antibodies 90 min; detected with HRP anti-IgG Fc; titres as area under the log-transformed curve (log AUC). On the technique in general: An ELISA detects its analyte on a solid surface through an enzyme-linked reagent.

Positions count from the first letter of the chain named. Values joined by “and” are separate entries in the source; they are usually repeats but may differ in a detail not shown here. Equal entries are not always repeated.

B1: DH845.1 Fab (Fab, V domains shown)
VH: QVQLQESGPGLVKPSETLSLTCAVSGGSMSSVYQGWGWIRQPPGKGLEWIATTYTSTGNIYYNPSLKGRGTVSRDTSKNQFSLKLSAVTAADTAVYYCARLNLGDSGDYTGVSEYFDFWGQGALVTVSS
VL: AIQLTQSPSALSASVGDRVTISCRASQNIYSNLAWYQQKPGKAPKLLIFGASRLQSGIPSRFSGSGSGTDFTLTISSLQPEDSATYYCQQVYSNFYSFGQGTKVEIK
Turning to B1, the stoichiometry N (Fabs per trimer) in experiment [1] was 2 and 3.

B2: DH840.1 IgG (antibody, V domains shown)
VH: QVQLKESGPGLVRPSETLSLTCAVSGTSINSAYAWGWVRLPPGKGLEWIMTVYTSTGNTYSDPSLKSRVTISKDTSKNQFSLRLSSVTVEDTAVYFCARADGSDSGWPHFDNWGQGLLVTVSS
VL: EIMVTQSPATLSVSPGERATLSCRASQSVRNRIAWYQQKPGQSPRLLIYDASIRAPGIPDRLSGSGSGTEFTLTINSLEPSDVAVYFCQLEANWLTFGGGTKVEIK
Take B2: the maximum percent neutralization of wild-type CON-S pseudovirus (TZM-bl cells) in experiment [2] was 83%. For the same molecule, the maximum percent neutralization of CON-S pseudovirus with the N362 glycan (TZM-bl cells) in experiment [3] was 45%.

B3: DH840.1 W100bA (antibody, V domains shown)
VH: B2 VH with W107A
VL: B2 VL
B3: the percent reduction of binding against wild-type DH840.1 in experiment [4] worked out at 64%.

B4: DH840.1 Fab (Fab, V domains shown)
VH: B2 VH
VL: B2 VL
Regarding B4, in experiment [1], the percent of trimers bound by Fab turned out to be 33% and the stoichiometry N (Fab per trimer) is 1.

B5: DH846.1 Fab (Fab, V domains shown)
VH: QLQLQESGPGLVKPSETLSLTCDVSGVSISSNYGWGWIRQPPGKGLDWIVTIYGGTGNTYYAPSLEGRVAISKDASKNQFSLRLNSVTAADTAVYYCARKITYSSGWYYFDYWGQGVLVAVSS
VL: EIVMTQSPATLSLSPGERATLSCRASQSVSSRLAWYQQKPGQAPRLLIYDASNRATGIPDRFSGSGSGTEFTLTISGLEPEDVAVYFCQEDHNWSTFGQGTKVEIK
For B5, the stoichiometry N (Fabs per trimer) in experiment [1] is 2 and 3.

B6: DH842 Fab (Fab, V domains shown)
VH: QVQLQESGPGLMQPAETLSLTCAVSRDSIGSGYYAWGWFRQVPGKGLEWIVTIYTSTGNIYDESPLKSRVTISRDTSKNQFSLKLTSVTPADTAVYFCAREGCNTVFCSAGWFDVWGPGLLVTVSS
VL: QAVLTQPTALSASPGASARLTCTLRSGISVADYRIFWYQQRPGSPPRYLLNYRTDSDHHQGSGVPSRFSGSKDDSANTGFLVISGLQSEDEADYHCMIRHNTAYIFGGGTRLTLL
Consider B6, for which, in experiment [1], the percent of analyzed Envs with one Fab bound was found to be 34% and the percent of analyzed Envs with two Fabs bound was 53%.
